Results: IntAct's records for PubMed 21768349

B1: DNA repair protein XRCC4 (Homo sapiens), Q13426 (parent)
chain: MERKISRIHLVSEPSITHFLQVSWEKTLESGFVITLTDGHSAWTGTVSESEISQEADDMAMEKGKYVGELRKALLSGAGPADVYTFNFSKESCYFFFEKNLKDVSFRLGSFNLEKVENPAEVIRELICYCLDTIAENQAKNEHLQKENERLLRDWNDVQGRFEKCVSAKEALETDLYKRFILVLNEKKTKIRSLHNKLLNAAQEREKDIKQEGETAICSEMTADRDPVYDESTDEESENQTDLSGLASAAVSKDDSIISSLDVTDIAPSRKRRQRMQRNLGTEPKMAPQENQLQEKENSRPDSSLPETSKKEHISAENMSLETLRNSSPEDLFDEI

Variants of: B1
Conditions: with NHEJ1, Q9H9Q4-1
NHEJ1, Q9H9Q4-1, sequence (Q9H9Q4 whole entry): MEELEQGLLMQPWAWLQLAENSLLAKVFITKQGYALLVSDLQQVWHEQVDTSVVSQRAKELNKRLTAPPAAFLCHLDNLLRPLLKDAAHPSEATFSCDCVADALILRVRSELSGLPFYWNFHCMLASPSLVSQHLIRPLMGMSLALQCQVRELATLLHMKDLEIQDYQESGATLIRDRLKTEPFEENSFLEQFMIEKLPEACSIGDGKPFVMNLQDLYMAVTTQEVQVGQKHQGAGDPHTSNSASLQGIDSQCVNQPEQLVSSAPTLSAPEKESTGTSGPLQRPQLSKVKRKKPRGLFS

| effect of a mutation on the interaction | Variant |
| --- | --- |
| decreasing interaction strength | K65E |
| disrupting interaction strength | F106E |
| decreasing interaction strength | F106Y |
| decreasing interaction strength | F106A |

More lines, now with the values behind:

| Variant | effect of a mutation on the interaction |
| --- | --- |
| D58R | disrupting interaction strength |
| M61R | disrupting interaction strength |
| E55R | disrupting interaction strength |
